{"source": "paper PMC5009806", "about": "(2016)", "biological_target": "amyloid beta monomer (Homo sapiens, UniProt P05067)", "assay": "SPR", "data": [{"binder": "Gantenerumab (antibody, V domains shown) VH: QVELVESGGGLVQPGGSLRLSCAASGFTFSSYAMSWVRQAPGKGLEWVSAINASGTRTYYADSVKGRFTISRDNSKNTLYLQMNSLRAEDTAVYYCARGKGNTHKPYGYVRYFDVWGQGTLVTVSS VL: DIVLTQSPATLSLSPGERATLSCRASQSVSSSYLAWYQQKPGQAPRLLIYGASSRATGVPARFSGSGSGTDFTLTISSLEPEDFATYYCLQIYNMPITFGQGTKVEIK", "values": [{"measurement": "Kd", "result": 18, "unit": "nM"}]}]}
